Measurements published in paper PMC6555819, “Comprehensive study of nuclear receptor DNA binding provides a revised framework for understanding receptor specificity”.

B1: NRC3_random_hg19_265_o1 (dsDNA)
DNA 1: GCCTCCCTCCTCCCATCCTCCACTTTCCCATAGGCCGCGATTGACAGCGTAGAATGAAGG
DNA 2: CCTTCATTCTACGCTGTCAATCGCGGCCTATGGGAAAGTGGAGGATGGGAGGAGGGAGGC
B2: NRC3_random_hg19_324_o1 (dsDNA)
DNA 1: GCCAGTGATGCACACCTGTAACCCTAGCACTTTGGGGCGATTGACAGCGTAGAATGAAGG
DNA 2: CCTTCATTCTACGCTGTCAATCGCCCCAAAGTGCTAGGGTTACAGGTGTGCATCACTGGC
B3: NRC3_wobSeed40_DR1_T12C_o1 (dsDNA)
DNA 1: GCTAGCCTAGGCCATGGGCCAGTATACCACGCGAACGCGATTGACAGCGTAGAATGAAGG
DNA 2: CCTTCATTCTACGCTGTCAATCGCGTTCGCGTGGTATACTGGCCCATGGCCTAGGCTAGC
B4: NRC3_random_hg19_202_o1 (dsDNA)
DNA 1: GCTCTCTGGTACCAGTGAAGAAGACGTCCAGGTGGCGCGATTGACAGCGTAGAATGAAGG
DNA 2: CCTTCATTCTACGCTGTCAATCGCGCCACCTGGACGTCTTCTTCACTGGTACCAGAGAGC
B5: NRC3_wobSeed138_DR5_G10A_o1 (dsDNA)
DNA 1: GCGATACAGAGTCAGCTAGAGGCCAGAGTATGGAAAGCGATTGACAGCGTAGAATGAAGG
DNA 2: CCTTCATTCTACGCTGTCAATCGCTTTCCATACTCTGGCCTCTAGCTGACTCTGTATCGC
B6: NRC3_wobSeed100_DR4_C23A_o1 (dsDNA)
DNA 1: GCCCTACTGGGCCACGAAAGGTAATTGATTCAGTGAGCGATTGACAGCGTAGAATGAAGG
DNA 2: CCTTCATTCTACGCTGTCAATCGCTCACTGAATCAATTACCTTTCGTGGCCCAGTAGGGC
B7: NRC3_random_hg19_179_o1 (dsDNA)
DNA 1: GCGGGAGGTGTAAGGATCCTTGTGCACTGCTTGGGAGCGATTGACAGCGTAGAATGAAGG
DNA 2: CCTTCATTCTACGCTGTCAATCGCTCCCAAGCAGTGCACAAGGATCCTTACACCTCCCGC
B8: NRC3_wobSeed1_DR0_C7A_o1 (dsDNA)
DNA 1: GCCAAAATAGGTCAAGGTCAAAGTCGGTTTGTGCCAGCGATTGACAGCGTAGAATGAAGG
DNA 2: CCTTCATTCTACGCTGTCAATCGCTGGCACAAACCGACTTTGACCTTGACCTATTTTGGC
B9: NRC3_wobSeed16_DR0_C13G_o1 (dsDNA)
DNA 1: GCCAGCCTAGGTGAGGGCCAGTATAGGAGGAACGTTGCGATTGACAGCGTAGAATGAAGG
DNA 2: CCTTCATTCTACGCTGTCAATCGCAACGTTCCTCCTATACTGGCCCTCACCTAGGCTGGC
B10: NRC3_wobSeed28_DR1_A21C_o1 (dsDNA)
DNA 1: GCCCTACTGGGCCAAAGGTCCTTGATTCCAATGCTCGCGATTGACAGCGTAGAATGAAGG
DNA 2: CCTTCATTCTACGCTGTCAATCGCGAGCATTGGAATCAAGGACCTTTGGCCCAGTAGGGC
B11: NRC3_random_hg19_331_o1 (dsDNA)
DNA 1: GCACAATCCCTACACTTTAGGAAGTCACAGTCTAGTGCGATTGACAGCGTAGAATGAAGG
DNA 2: CCTTCATTCTACGCTGTCAATCGCACTAGACTGTGACTTCCTAAAGTGTAGGGATTGTGC
B12: NRC3_random_hg19_357_o1 (dsDNA)
DNA 1: GCAACAGATTTCATTGAGGTGATCTACTTCGTTTCTGCGATTGACAGCGTAGAATGAAGG
DNA 2: CCTTCATTCTACGCTGTCAATCGCAGAAACGAAGTAGATCACCTCAATGAAATCTGTTGC
B13: NRC3_random_hg19_434_o1 (dsDNA)
DNA 1: GCCACATGAAAGCTGACAACAGAAGCACTCCAACACGCGATTGACAGCGTAGAATGAAGG
DNA 2: CCTTCATTCTACGCTGTCAATCGCGTGTTGGAGTGCTTCTGTTGTCAGCTTTCATGTGGC
B14: NRC3_wobSeed34_DR1_A9T_o1 (dsDNA)
DNA 1: GCATCGAATGGTCGAAGGTGAGTATACCCACCCGAAGCGATTGACAGCGTAGAATGAAGG
DNA 2: CCTTCATTCTACGCTGTCAATCGCTTCGGGTGGGTATACTCACCTTCGACCATTCGATGC
B15: NRC3_wobSeed88_DR3_T12A_o1 (dsDNA)
DNA 1: GCTAGCCTAGGACATGCGGGCCAGTATAGTGTCGGCGCGATTGACAGCGTAGAATGAAGG
DNA 2: CCTTCATTCTACGCTGTCAATCGCGCCGACACTATACTGGCCCGCATGTCCTAGGCTAGC
B16: NRC3_wobSeed90_DR3_A14C_o1 (dsDNA)
DNA 1: GCCATACAGGGTCCGCTAGGCCAGAGTAGGGACGGCGCGATTGACAGCGTAGAATGAAGG
DNA 2: CCTTCATTCTACGCTGTCAATCGCGCCGTCCCTACTCTGGCCTAGCGGACCCTGTATGGC
B17: NRC3_wobSeed86_DR3_C13A_o1 (dsDNA)
DNA 1: GCGCTGCTAGGTAAGGTTGGTCAGCTAACGGGTACGGCGATTGACAGCGTAGAATGAAGG
DNA 2: CCTTCATTCTACGCTGTCAATCGCCGTACCCGTTAGCTGACCAACCTTACCTAGCAGCGC
B18: NRC3_wobSeed66_DR2_G11A_o1 (dsDNA)
DNA 1: GCAATACAGGATCACTAGGCCAGAGTAGGTACGAATGCGATTGACAGCGTAGAATGAAGG
DNA 2: CCTTCATTCTACGCTGTCAATCGCATTCGTACCTACTCTGGCCTAGTGATCCTGTATTGC
B19: NRC3_wobSeed21_DR0_A14T_o1 (dsDNA)
DNA 1: GCCGTCAAAGTTCTAGGTAACGTAACAGAAAGCAGCGCGATTGACAGCGTAGAATGAAGG
DNA 2: CCTTCATTCTACGCTGTCAATCGCGCTGCTTTCTGTTACGTTACCTAGAACTTTGACGGC
B20: NRC3_random_hg19_291_o1 (dsDNA)
DNA 1: GCGAGCAAAGGGACTTCTTAGATGGTGGTGGGCAAGGCGATTGACAGCGTAGAATGAAGG
DNA 2: CCTTCATTCTACGCTGTCAATCGCCTTGCCCACCACCATCTAAGAAGTCCCTTTGCTCGC
B21: NRC3_wobSeed15_DR0_G11C_o1 (dsDNA)
DNA 1: GCCGAACTAGCTCAAGGACAGTGAATCTCCGCACGCGCGATTGACAGCGTAGAATGAAGG
DNA 2: CCTTCATTCTACGCTGTCAATCGCGCGTGCGGAGATTCACTGTCCTTGAGCTAGTTCGGC
B22: NRC3_wobSeed93_DR3_G10T_o1 (dsDNA)
DNA 1: GCAGTCAAATTTCATCTAGGTAACGTAAGATATGCTGCGATTGACAGCGTAGAATGAAGG
DNA 2: CCTTCATTCTACGCTGTCAATCGCAGCATATCTTACGTTACCTAGATGAAATTTGACTGC
B23: NRC3_random_hg19_459_o1 (dsDNA)
DNA 1: GCAAACACAACAGTACCTACCTTAAGCAGTTCATCAGCGATTGACAGCGTAGAATGAAGG
DNA 2: CCTTCATTCTACGCTGTCAATCGCTGATGAACTGCTTAAGGTAGGTACTGTTGTGTTTGC
B24: NRC3_wobSeed117_DR4_T11C_o1 (dsDNA)
DNA 1: GCCGTCAAAGCTCAACTAAGGTAACGTAAAGCACGCGCGATTGACAGCGTAGAATGAAGG
DNA 2: CCTTCATTCTACGCTGTCAATCGCGCGTGCTTTACGTTACCTTAGTTGAGCTTTGACGGC
B25: NRC3_random_hg19_4_o1 (dsDNA)
DNA 1: GCGTAGTTGTGTCCTCTCCTGTTCTCTCTTCTACTGGCGATTGACAGCGTAGAATGAAGG
DNA 2: CCTTCATTCTACGCTGTCAATCGCCAGTAGAAGAGAGAACAGGAGAGGACACAACTACGC
B26: NRC3_wobSeed38_DR1_A14T_o1 (dsDNA)
DNA 1: GCCCTGCTAGGTCTATGGTCAGCTAAAGCAGCTCGCGCGATTGACAGCGTAGAATGAAGG
DNA 2: CCTTCATTCTACGCTGTCAATCGCGCGAGCTGCTTTAGCTGACCATAGACCTAGCAGGGC
B27: NRC3_random_hg19_268_o1 (dsDNA)
DNA 1: GCTGTTCTTTGGCAGTCTAGAGAATCAGAAGAGCAAGCGATTGACAGCGTAGAATGAAGG
DNA 2: CCTTCATTCTACGCTGTCAATCGCTTGCTCTTCTGATTCTCTAGACTGCCAAAGAACAGC
B28: NRC3_wobSeed76_DR3_G19T_o1 (dsDNA)
DNA 1: GCCCTACTGGGCCAAAAATGTCATTGATGCCGATAAGCGATTGACAGCGTAGAATGAAGG
DNA 2: CCTTCATTCTACGCTGTCAATCGCTTATCGGCATCAATGACATTTTTGGCCCAGTAGGGC
B29: NRC3_random_hg19_75_o1 (dsDNA)
DNA 1: GCCTGAAACTACCTTATCTCTATTCTAGGCTTAAGCGCGATTGACAGCGTAGAATGAAGG
DNA 2: CCTTCATTCTACGCTGTCAATCGCGCTTAAGCCTAGAATAGAGATAAGGTAGTTTCAGGC
B30: NRC3_random_hg19_283_o1 (dsDNA)
DNA 1: GCTAGCTTACCTGGATCCACTTGGCCACTAGATTTGGCGATTGACAGCGTAGAATGAAGG
DNA 2: CCTTCATTCTACGCTGTCAATCGCCAAATCTAGTGGCCAAGTGGATCCAGGTAAGCTAGC
B31: NRC3_wobSeed87_DR3_T12A_o1 (dsDNA)
DNA 1: GCCGAACTAGGACATCCAGGACAGTGAATACATTGAGCGATTGACAGCGTAGAATGAAGG
DNA 2: CCTTCATTCTACGCTGTCAATCGCTCAATGTATTCACTGTCCTGGATGTCCTAGTTCGGC

biological target: RARb:RXRa (Homo sapiens, UniProt P10826;P19793 full;full); experiment: no ligand; PBM; 270 nM : 90 nM RXRa; PBS pH 7.4, 2% milk, 0.02% Triton X-100, 1 mM DTT, BSA, 0.4 mg/ml salmon testes DNA; conditions: tags: His kept;His cleaved; copies: 1;1; label: surface-attached array probe
Sequence (P10826 whole entry, chain 1 of 2): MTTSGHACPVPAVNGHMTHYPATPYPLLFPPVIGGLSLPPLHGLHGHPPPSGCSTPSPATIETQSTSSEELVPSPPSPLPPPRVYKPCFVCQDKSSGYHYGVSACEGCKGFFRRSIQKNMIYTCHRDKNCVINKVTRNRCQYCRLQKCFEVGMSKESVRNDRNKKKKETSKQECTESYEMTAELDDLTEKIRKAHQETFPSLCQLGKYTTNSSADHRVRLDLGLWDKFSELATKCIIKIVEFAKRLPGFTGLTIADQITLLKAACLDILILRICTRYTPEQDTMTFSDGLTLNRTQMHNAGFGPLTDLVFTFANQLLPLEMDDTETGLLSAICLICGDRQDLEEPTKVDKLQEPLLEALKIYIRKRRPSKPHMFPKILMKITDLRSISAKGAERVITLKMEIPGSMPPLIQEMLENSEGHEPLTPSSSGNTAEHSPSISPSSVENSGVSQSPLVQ
Sequence (P19793 whole entry, chain 2 of 2): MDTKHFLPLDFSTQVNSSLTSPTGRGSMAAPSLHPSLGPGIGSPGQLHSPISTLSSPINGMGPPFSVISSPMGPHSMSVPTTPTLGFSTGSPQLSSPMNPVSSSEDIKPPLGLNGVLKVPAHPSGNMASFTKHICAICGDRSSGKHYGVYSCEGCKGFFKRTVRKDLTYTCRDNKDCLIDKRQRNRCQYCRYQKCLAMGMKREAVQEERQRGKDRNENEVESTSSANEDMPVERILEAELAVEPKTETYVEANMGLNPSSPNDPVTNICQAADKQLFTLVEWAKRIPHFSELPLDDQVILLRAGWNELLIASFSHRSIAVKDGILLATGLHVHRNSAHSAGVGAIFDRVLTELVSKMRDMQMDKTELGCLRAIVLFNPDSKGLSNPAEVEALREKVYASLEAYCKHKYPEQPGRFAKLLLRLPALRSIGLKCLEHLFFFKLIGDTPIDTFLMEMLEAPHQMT
Method in brief: (§1)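 On custom Agilent 4×180K arrays, double-stranded probes with 34-nt variable regions carried direct-repeat seeds, single-nucleotide variants, half-site ablations or random human genomic background. Ligand-free nuclear receptor dimers were applied for 1 h, and binding was read with antibodies against each partner (one per run). Binding z-scores come from regression-normalized fluorescence, with the random background probes as reference.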

Compared with B1, B2 is lower in binding signal: 0.13 PBM z-score against 500 random probes for the first, 0.04 PBM z-score against 500 random probes for the second.

Compared with B3, B4 is lower in binding signal: 0.19 PBM z-score against 500 random probes for the first, -0.14 PBM z-score against 500 random probes for the second.

Going from B5 to B6, the binding signal rises from 0.27 PBM z-score against 500 random probes to 0.41 PBM z-score against 500 random probes.

First: B7
Second: B8
The binding signal of the first is lower: 0.23 PBM z-score against 500 random probes for the first, 5.5 PBM z-score against 500 random probes for the second.

Going from B9 to B10, the binding signal rises from 0.33 PBM z-score against 500 random probes to 0.42 PBM z-score against 500 random probes.

First: B11
Second: B12
The binding signal of the first is higher: 0.39 PBM z-score against 500 random probes for the first, -0.12 PBM z-score against 500 random probes for the second.

Going from B13 to B14, the binding signal rises from -0.24 PBM z-score against 500 random probes to 0.4 PBM z-score against 500 random probes.

Going from B15 to B16, the binding signal rises from -0.15 PBM z-score against 500 random probes to 0.26 PBM z-score against 500 random probes.

First: B17
Second: B18
The binding signal of the first is lower: 0.16 PBM z-score against 500 random probes for the first, 0.18 PBM z-score against 500 random probes for the second.

Compared with B19, B20 is lower in binding signal: 0.4 PBM z-score against 500 random probes for the first, -0.49 PBM z-score against 500 random probes for the second.

First: B21
Second: B22
The binding signal of the first is higher: 0.3 PBM z-score against 500 random probes for the first, 0.23 PBM z-score against 500 random probes for the second.

First: B23
Second: B24
The binding signal of the first is higher: 0.25 PBM z-score against 500 random probes for the first, 0.06 PBM z-score against 500 random probes for the second.

First: B25
Second: B26
The binding signal of the first is lower: 0.3 PBM z-score against 500 random probes for the first, 0.39 PBM z-score against 500 random probes for the second.

First: B27
Second: B28
The binding signal of the first is lower: -1.08 PBM z-score against 500 random probes for the first, 0.29 PBM z-score against 500 random probes for the second.

First: B29
Second: B30
The binding signal of the first is higher: 0.33 PBM z-score against 500 random probes for the first, -0.42 PBM z-score against 500 random probes for the second.

With B31 the binding signal was 0.14 PBM z-score against 500 random probes.

biological target: PPARa:RXRa (Homo sapiens, UniProt Q07869;P19793 full;full); experiment: as above; conditions: tags: GST kept;His cleaved; copies: 1;1; label: surface-attached array probe
Sequence (Q07869 whole entry, chain 1 of 2): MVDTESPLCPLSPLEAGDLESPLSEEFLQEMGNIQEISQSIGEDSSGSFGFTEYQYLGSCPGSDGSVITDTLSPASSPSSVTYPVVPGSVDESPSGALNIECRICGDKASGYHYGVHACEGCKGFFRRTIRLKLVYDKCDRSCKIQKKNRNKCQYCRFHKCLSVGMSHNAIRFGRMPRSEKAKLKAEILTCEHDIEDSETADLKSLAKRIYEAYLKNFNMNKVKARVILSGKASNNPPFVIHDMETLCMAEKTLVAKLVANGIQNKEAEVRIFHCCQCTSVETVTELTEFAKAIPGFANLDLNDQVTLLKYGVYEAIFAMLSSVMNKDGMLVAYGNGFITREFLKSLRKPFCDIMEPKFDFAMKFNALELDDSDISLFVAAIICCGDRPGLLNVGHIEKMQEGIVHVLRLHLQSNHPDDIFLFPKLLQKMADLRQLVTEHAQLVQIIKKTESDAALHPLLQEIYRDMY
Sequence (P19793 whole entry, chain 2 of 2): as the sequence (P19793 whole entry, chain 2 of 2) above
Method in brief: as §1

B8 was tested, and the binding signal was 6.51 PBM z-score against 500 random probes.
